This is an account of results in article PMC2804221.

The target in assay [1] is GLP-1 receptor E127A (human) (UniProt P43220).
For assay [2], the target named is GLP-1 receptor E127Q (human) (UniProt P43220).
Assay [3] addresses GLP-1 receptor E128A (human) (UniProt P43220).
The target in assay [4] is GLP-1 receptor E128Q (human) (UniProt P43220).
Assay [5] has as its target GLP-1 receptor E68A (human) (UniProt P43220).
Assay [6] addresses GLP-1 receptor L123A (human) (UniProt P43220).
Assay [7] has as its target GLP-1 receptor L32A (human) (UniProt P43220).
In assay [8] the target is GLP-1 receptor P90A (human) (UniProt P43220).
Sequence of GLP-1 receptor P90A (human) (P43220 24-463 P90A): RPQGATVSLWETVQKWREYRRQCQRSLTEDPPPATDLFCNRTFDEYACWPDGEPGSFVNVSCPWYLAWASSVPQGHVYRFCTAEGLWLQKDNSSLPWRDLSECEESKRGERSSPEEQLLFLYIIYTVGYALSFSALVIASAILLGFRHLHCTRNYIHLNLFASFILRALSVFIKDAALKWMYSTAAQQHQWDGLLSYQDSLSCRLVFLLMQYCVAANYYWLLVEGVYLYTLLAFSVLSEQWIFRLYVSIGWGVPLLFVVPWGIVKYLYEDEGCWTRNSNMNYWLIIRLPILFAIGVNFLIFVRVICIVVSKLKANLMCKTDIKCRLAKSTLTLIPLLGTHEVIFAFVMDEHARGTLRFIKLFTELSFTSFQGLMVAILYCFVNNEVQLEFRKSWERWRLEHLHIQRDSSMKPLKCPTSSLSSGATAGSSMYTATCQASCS
Assay [9] concerns the target GLP-1 receptor R121A (human) (UniProt P43220).
Assay [10] has as its target GLP-1 receptor T35A (human) (UniProt P43220).
For assay [11], the target named is GLP-1 receptor V36A (human) (UniProt P43220).
Sequence of GLP-1 receptor V36A (human) (P43220 24-463 V36A): as the sequence (P43220 24-463 P90A) above, with V13A, A67P counted along it
The target in assay [12] is Wild-type human GLP-1 receptor, full length (human) (UniProt P43220).
Sequence of Wild-type human GLP-1 receptor, full length (human) (P43220 24-463): as the sequence (P43220 24-463 P90A) above, with A67P counted along it
Assay [13] concerns the target GLP-1 receptor E127A (human) (UniProt P43220). The assay is described as follows: radioligand binding.
Assay [14] concerns the target GLP-1 receptor E127Q (human) (UniProt P43220). The assay is described as follows: radioligand binding.
The target in assay [15] is GLP-1 receptor E128A (human) (UniProt P43220). Kind of assay: radioligand binding.
Sequence of GLP-1 receptor E128A (human) (P43220 24-463 E128A): as the sequence (P43220 24-463 P90A) above, with A67P, E105A counted along it
Assay [16] has as its target GLP-1 receptor E128Q (human) (UniProt P43220). Kind of assay: radioligand binding.
For assay [17], the target named is GLP-1 receptor E68A (human) (UniProt P43220). The assay is described as follows: radioligand binding.
Sequence of GLP-1 receptor E68A (human) (P43220 24-463 E68A): as the sequence (P43220 24-463 P90A) above, with E45A, A67P counted along it
Assay [18] has as its target GLP-1 receptor L123A (human) (UniProt P43220). The assay is described as follows: radioligand binding.
The target in assay [19] is GLP-1 receptor L32A (human) (UniProt P43220). Kind of assay: radioligand binding.
Sequence of GLP-1 receptor L32A (human) (P43220 24-463 L32A): as the sequence (P43220 24-463 P90A) above, with L9A, A67P counted along it
The target of assay [20] is GLP-1 receptor P90A (human) (UniProt P43220). Kind of assay: radioligand binding.
Assay [21] deals with GLP-1 receptor R121A (human) (UniProt P43220). Kind of assay: radioligand binding.
Sequence of GLP-1 receptor R121A (human) (P43220 24-463 R121A): as the sequence (P43220 24-463 P90A) above, with A67P, R98A counted along it
Assay [22] addresses GLP-1 receptor T35A (human) (UniProt P43220). Kind of assay: radioligand binding.
Assay [23] deals with GLP-1 receptor V36A (human) (UniProt P43220). The assay is described as follows: radioligand binding.
The target in assay [24] is Wild-type human GLP-1 receptor, full length (human) (UniProt P43220). The assay is described as follows: radioligand binding.

Sequence of GLP-1 receptor T35A (human) (P43220 24-463 T35A): as the sequence (P43220 24-463 P90A) above, with T12A, A67P counted along it
Sequence of GLP-1 receptor E127Q (human) (P43220 24-463 E127Q): as the sequence (P43220 24-463 P90A) above, with A67P, E104Q counted along it
Sequence of GLP-1 receptor E127A (human) (P43220 24-463 E127A): as the sequence (P43220 24-463 P90A) above, with A67P, E104A counted along it
Sequence of GLP-1 receptor L123A (human) (P43220 24-463 L123A): as the sequence (P43220 24-463 P90A) above, with A67P, L100A counted along it
Sequence of GLP-1 receptor E128Q (human) (P43220 24-463 E128Q): as the sequence (P43220 24-463 P90A) above, with A67P, E105Q counted along it

For orientation: IC50 means the concentration that gives 50% inhibition. Low values mean inhibition by little substance, high ones a need for much substance. Take “Exendin-4 (from UniProt P26349 48-87) (peptide)”: the EC50 of cAMP production, transiently transfected HEK293 cells in [1] came to 11 pM; in assay [2], 6.8 pM; in [3] it was 25 pM; in assay [4], 8 pM; in [5] it was 9.5 pM; in assay [6], 9.5 pM. Also, the EC50 of cAMP production, transiently transfected HEK293 cells in assay [7] was found to be 52 pM; in [8], 30 pM; in [9], 44 pM; in assay [10] it was 23 pM; in [11] it was 36 pM; in assay [12] it was 5.5 pM. For the same substance, the IC50 in assay [13] was 5200 pM; in [14], 820 pM; in assay [15], 1800 pM; in [16] it was 450 pM; in assay [17], 480 pM; in [18], 330 pM. Moreover, the IC50 in assay [19] was found to be 5400 pM; in assay [20] it was 1600 pM; in assay [21], 1200 pM; in assay [22] it was 440 pM; in [23] it was 980 pM; in assay [24] it was 760 pM.
